No end group written: not given here.
T1: IL-15Rα on CTLL-2 cells (murine (CTLL-2 murine cell line), UniProt Q60819 33-263)
T1 sequence (looked up): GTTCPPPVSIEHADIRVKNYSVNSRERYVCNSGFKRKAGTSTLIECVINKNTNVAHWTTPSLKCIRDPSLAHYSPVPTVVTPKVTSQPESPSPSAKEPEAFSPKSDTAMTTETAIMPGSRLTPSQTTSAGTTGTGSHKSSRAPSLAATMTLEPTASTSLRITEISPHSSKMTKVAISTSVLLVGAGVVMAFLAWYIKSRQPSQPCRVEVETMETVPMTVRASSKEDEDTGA


Molecular target: T1, IL-15Rα on CTLL-2 cells
Assay: cell-based or functional assay

| Binder | fold inhibitory activity against the original peptide, CTLL-2 proliferation assay | inhibitory concentration 50 (IC50), IL-15-dependent proliferation |
| --- | --- | --- |
| KVTAMTCFLL-NH2 (also: homodimer, two monomers linked through the free Cys) [peptide dimer of SEQ ID No. 12 linked through the free Cys] | 15 fold | 8 µM |
| KVTAMTCFLL-NH2 [peptide SEQ ID No. 12 (Lys-Thr mutant, monomer)] | 5 fold |  |

Molecular target: T1, IL-15Rα on CTLL-2 cells
Assay: cell-based or functional assay
Remark: another data set of the same source

| Binder | IC50 (µM), IL-15-induced (300 pg/mL) proliferation of the CTLL-2 cell line, MTT | IC50 (µM), IL-15-induced proliferation of the CTLL-2 cell line, MTT; '0' stands for loss of the inhibitory effect |
| --- | --- | --- |
| KVTAMKCFLA-NH2 | 260 µM |  |
| KVTAMTCFLL-NH2 [peptide SEQ ID No. 12 (Lys-Thr mutant, monomer)] | 24.6 µM |  |
| KVAAMKCFLL-NH2 | 130 µM |  |
| KVTAMKCFLL-NH2 [KVTAMKCFLL (IL-15 antagonistic peptide of patent application No. WO2006/029578)] | 130 µM |  |
| KVTAMKCFAL-NH2 | 200 µM |  |
| KVTAAKCFLL-NH2 | 130 µM |  |
| KVTAMTCYLL-NH2 | 57.7 µM |  |
| KATAMKCFLL-NH2 | 130 µM |  |
| KVTAMECFLL-NH2 |  | 0 µM |
| KVTAMKSFLL-NH2 |  | 0 µM |
| KVTAMKCALL-NH2 [mutant Phe-Ala (SEQ ID No. 4)] |  | 0 µM |
| KVTAMKAFLL-NH2 [Cys-Ala mutant (SEQ ID No. 5)] |  | 0 µM |

— patent US20110251140A1 (CENTRO DE INGENIERIA GENETICA Y BIOTECNOLOGIA, published 2011)
